Experimental data: patent US20130273052A1

What was measured:
[1] = molecular target: human complement component C5 protein (human); assay: Biacore 3000 SPR, scFv immobilised on CM5 chip, C5 0.1875-24 nM as analyte, 25 C, 1:1 Langmuir model
[2] = molecular target: human complement component C5 protein (human); assay: cell-based or functional assay
[3] = molecular target: R38Q scFv (variant of the anti-C5 single chain antibody pexelizumab); assay: Biacore SPR self-association, R38Q scFv immobilised on CM5 chip, R38Q scFv 0.6-75 µM as analyte; poor fit to the Langmuir model

- Kd [1]: 0.000108 µM
- koff [1]: 6.06e-05 s⁻¹
- kon [1]: 559000 M⁻¹ s⁻¹
- Kd [3]: 32 µM
- koff [3]: 0.0107 s⁻¹
- kon [3]: 334 M⁻¹ s⁻¹
Substance: R38Q scFv (variant of the anti-C5 single chain antibody pexelizumab)
- inhibition of chicken erythrocyte hemolysis in about 10% normal human serum (absorbance at 415 nm), IC50 [2]: 2 µg/mL
